{"source": "ChEMBL document CHEMBL1221387", "about": "“Prenylflavonoids from Glycyrrhiza uralensis and their protein tyrosine phosphatase-1B inhibitory activities” (Bioorg Med Chem Lett, 2010)", "proteins": {"B1": {"name": "Tyrosine-protein phosphatase non-receptor type 1 (Homo sapiens), P18031 (protein)", "chain": "MEMEKEFEQIDKSGSWAAIYQDIRHEASDFPCRVAKLPKNKNRNRYRDVSPFDHSRIKLHQEDNDYINASLIKMEEAQRSYILTQGPLPNTCGHFWEMVWEQKSRGVVMLNRVMEKGSLKCAQYWPQKEEKEMIFEDTNLKLTLISEDIKSYYTVRQLELENLTTQETREILHFHYTTWPDFGVPESPASFLNFLFKVRESGSLSPEHGPVVVHCSAGIGRSGTFCLADTCLLLMDKRKDPSSVDIKKVLLEMRKFRMGLIQTADQLRFSYLAVIEGAKFIMGDSSVQDQWKELSHEDLEPPPEHIPPPPRPPKRILEPHNGKCREFFPNHQWVKEETQEDKDCPIKEEKGSPLNAAPYGIESMSQDTEVRSRVVGGSLRGAQAASPAKGEPSLPEKDEDHALSYWKPFLVNMCVATVLTAGAYLCYRFLFNSNT"}}, "key": {"[1]": {"substrate": "COc1c(CC=C(C)C)c(O)cc(O)c1-c1oc2cc(O)ccc2c1C", "details": "Homo sapiens; 10 uM", "description": "Competitive inhibition of human recombinant PTP1B at 10 uM by Lineweaver-Burke plot analysis"}, "[2]": {"substrate": "COc1c(CC=C(C)C)c(O)cc(O)c1-c1oc2cc(O)ccc2c1C", "details": "Homo sapiens; 20 uM", "description": "Competitive inhibition of human recombinant PTP1B at 20 uM by Lineweaver-Burke plot analysis"}, "[3]": {"substrate": "COc1c(CC=C(C)C)c(O)cc(O)c1-c1oc2cc(O)ccc2c1C", "details": "Homo sapiens; 30 uM", "description": "Competitive inhibition of human recombinant PTP1B at 30 uM by Lineweaver-Burke plot analysis"}}, "data": [{"protein": "B1", "values": [{"measurement": "Km", "setting": "[1]", "result": 3.5, "unit": "µM"}, {"measurement": "Km", "setting": "[2]", "result": 4.2, "unit": "µM"}, {"measurement": "Km", "setting": "[3]", "result": 5.5, "unit": "µM"}]}]}
